Values quoted from earlier work as cited in doi:10.1101/2025.09.11.675682.

Experiments:
Assay in all cases: ITC
Conditions in all cases: cited from earlier work
[1] = target: LAT 161-180 (Homo sapiens) (UniProt O43561)
[2] = target: SLP-76 157-420 (Homo sapiens) (UniProt Q13094)
LAT (Homo sapiens) = LAT (Homo sapiens) (UniProt O43561)
[3] = target: SLP-76 159-533 (Homo sapiens) (UniProt Q13094)
[4] = target: LAT 125-178 (Homo sapiens) (UniProt O43561)
[5] = target: LAT 122-140 (Homo sapiens) (UniProt O43561)

Sequence of SLP-76 157-420 (Homo sapiens) (Q13094 157-420): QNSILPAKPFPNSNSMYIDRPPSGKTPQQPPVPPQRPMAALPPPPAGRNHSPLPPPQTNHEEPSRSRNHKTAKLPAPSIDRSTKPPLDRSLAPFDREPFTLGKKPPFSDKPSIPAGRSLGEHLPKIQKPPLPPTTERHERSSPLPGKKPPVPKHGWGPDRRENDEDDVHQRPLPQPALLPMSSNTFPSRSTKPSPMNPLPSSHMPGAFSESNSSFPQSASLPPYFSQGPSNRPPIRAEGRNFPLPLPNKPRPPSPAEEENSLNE
Sequence of Gads 1-322 (from UniProt O89100) (O89100 whole entry): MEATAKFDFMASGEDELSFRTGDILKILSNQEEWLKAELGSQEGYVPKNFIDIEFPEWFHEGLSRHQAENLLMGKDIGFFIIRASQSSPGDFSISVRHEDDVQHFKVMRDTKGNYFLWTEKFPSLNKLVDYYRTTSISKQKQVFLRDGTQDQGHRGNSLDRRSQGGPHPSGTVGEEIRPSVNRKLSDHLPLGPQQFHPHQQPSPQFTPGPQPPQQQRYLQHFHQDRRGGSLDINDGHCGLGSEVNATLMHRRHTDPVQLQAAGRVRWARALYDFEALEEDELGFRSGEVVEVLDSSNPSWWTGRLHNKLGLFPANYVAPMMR
Sequence of Gads 1-322 (from UniProt O75791) (O75791 1-322): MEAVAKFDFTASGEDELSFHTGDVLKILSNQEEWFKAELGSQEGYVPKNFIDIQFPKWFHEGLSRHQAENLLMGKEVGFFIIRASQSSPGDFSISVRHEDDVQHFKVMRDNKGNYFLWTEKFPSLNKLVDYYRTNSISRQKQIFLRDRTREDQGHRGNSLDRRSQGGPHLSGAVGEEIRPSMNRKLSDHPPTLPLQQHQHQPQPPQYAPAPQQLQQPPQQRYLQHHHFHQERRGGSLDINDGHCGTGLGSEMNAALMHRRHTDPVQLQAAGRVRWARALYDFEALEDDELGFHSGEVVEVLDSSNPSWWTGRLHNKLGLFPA
Sequence of LAT 125-178 (Homo sapiens) (O43561 125-178): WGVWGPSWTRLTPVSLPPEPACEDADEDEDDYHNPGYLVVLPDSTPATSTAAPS
Sequence of PLC-γ1 550-846 (P19174 550-846): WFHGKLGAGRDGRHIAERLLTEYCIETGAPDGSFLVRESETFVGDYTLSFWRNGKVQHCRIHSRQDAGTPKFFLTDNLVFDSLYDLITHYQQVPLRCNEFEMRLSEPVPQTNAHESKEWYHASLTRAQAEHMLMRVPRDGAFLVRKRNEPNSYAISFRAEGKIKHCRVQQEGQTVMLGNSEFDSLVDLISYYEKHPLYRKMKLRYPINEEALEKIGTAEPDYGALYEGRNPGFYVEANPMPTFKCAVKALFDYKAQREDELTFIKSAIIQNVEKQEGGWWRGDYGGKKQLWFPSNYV
Sequence of PLC-γ1 (P19174 2-1290): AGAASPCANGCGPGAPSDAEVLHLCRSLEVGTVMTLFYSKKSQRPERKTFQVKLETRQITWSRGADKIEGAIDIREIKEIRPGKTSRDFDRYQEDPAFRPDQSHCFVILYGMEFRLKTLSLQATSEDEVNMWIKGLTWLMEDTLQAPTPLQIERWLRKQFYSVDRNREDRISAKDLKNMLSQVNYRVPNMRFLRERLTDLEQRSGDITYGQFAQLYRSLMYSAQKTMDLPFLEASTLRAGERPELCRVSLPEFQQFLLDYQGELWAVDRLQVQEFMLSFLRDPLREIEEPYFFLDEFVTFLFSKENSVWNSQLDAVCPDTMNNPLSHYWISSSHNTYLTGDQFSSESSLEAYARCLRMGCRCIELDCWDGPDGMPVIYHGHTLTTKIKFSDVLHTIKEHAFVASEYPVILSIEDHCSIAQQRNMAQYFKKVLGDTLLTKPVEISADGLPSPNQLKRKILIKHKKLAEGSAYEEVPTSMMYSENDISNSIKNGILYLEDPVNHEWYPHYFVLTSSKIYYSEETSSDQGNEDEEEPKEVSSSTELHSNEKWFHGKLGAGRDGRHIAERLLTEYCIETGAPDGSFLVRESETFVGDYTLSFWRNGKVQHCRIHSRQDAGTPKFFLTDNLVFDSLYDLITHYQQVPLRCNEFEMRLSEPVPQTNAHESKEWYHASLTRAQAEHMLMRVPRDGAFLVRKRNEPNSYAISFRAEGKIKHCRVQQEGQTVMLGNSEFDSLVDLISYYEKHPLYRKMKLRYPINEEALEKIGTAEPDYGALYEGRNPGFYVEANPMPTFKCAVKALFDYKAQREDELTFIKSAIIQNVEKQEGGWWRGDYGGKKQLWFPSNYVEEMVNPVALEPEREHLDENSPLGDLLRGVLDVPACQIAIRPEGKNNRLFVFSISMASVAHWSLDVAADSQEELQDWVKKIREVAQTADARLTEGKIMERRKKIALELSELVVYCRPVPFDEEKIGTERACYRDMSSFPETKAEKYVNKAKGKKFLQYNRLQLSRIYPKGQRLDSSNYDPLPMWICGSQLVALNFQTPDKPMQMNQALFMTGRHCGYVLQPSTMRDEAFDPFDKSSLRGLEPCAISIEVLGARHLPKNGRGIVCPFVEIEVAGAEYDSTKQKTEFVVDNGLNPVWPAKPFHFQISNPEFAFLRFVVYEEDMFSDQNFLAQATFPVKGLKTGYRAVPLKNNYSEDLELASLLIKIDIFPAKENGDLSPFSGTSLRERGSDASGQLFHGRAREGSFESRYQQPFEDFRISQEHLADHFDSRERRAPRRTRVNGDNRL
Sequence of SLP-76 159-533 (Homo sapiens) (Q13094 159-533): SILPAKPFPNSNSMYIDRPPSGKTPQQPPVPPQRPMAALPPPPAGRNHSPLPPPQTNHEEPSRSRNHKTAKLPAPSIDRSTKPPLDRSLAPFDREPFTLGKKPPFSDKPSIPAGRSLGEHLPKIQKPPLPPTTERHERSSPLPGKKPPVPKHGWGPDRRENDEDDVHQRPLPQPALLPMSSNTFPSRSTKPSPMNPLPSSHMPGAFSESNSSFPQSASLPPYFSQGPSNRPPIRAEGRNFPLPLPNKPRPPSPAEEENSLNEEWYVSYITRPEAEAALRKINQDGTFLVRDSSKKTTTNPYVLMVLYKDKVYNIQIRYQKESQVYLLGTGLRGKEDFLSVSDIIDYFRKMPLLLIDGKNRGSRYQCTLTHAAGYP
Sequence of LAT 161-180 (Homo sapiens) (O43561 161-180): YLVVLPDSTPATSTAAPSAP
Sequence of PLC-γ1 1-1219 (P19174 1-1219): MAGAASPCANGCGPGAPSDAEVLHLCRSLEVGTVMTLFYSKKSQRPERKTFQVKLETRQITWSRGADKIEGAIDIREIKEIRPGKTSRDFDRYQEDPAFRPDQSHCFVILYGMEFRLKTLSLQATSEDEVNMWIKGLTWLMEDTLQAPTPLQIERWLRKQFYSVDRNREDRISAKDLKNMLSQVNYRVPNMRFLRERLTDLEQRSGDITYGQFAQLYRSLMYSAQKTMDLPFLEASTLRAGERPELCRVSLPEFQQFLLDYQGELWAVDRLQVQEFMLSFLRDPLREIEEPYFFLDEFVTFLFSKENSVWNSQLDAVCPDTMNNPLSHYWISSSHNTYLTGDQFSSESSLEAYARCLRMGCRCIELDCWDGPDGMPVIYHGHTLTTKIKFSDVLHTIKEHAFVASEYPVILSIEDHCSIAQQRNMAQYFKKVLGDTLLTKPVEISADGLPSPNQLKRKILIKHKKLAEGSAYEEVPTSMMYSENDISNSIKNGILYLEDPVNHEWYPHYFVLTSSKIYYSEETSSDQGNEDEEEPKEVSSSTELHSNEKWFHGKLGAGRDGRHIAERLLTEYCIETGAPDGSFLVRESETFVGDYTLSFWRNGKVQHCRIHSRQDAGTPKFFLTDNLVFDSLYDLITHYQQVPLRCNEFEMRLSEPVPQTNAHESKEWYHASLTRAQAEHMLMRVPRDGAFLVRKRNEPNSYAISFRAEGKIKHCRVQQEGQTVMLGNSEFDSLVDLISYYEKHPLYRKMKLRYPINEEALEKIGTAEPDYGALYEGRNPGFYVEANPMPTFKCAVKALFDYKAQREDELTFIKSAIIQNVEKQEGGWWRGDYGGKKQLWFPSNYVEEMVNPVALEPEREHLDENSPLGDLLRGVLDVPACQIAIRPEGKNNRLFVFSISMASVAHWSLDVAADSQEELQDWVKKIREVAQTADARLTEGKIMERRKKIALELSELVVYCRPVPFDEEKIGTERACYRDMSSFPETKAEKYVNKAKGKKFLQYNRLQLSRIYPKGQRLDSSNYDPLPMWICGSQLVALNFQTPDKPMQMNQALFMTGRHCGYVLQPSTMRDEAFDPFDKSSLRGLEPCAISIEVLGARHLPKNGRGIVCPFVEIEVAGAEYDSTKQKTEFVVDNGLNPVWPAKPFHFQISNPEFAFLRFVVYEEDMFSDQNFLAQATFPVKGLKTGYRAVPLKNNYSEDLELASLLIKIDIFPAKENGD

Substance | Kd [2] | Kd [4] | further results
Gads 1-322 (from UniProt O75791) | 19 nM |  | Kd [1]: 164 nM
Gads 1-322 (from UniProt O89100) | 19 nM | 213 nM | Kd (LAT (Homo sapiens)): 164 nM; Kd [3]: 3.6 nM
PLC-γ1 1-1219 (from UniProt P19174) |  | 84 nM | 
PLC-γ1 550-846 (from UniProt P19174) | 3340 nM |  | Kd [5]: 62 nM
PLC-γ1 (from UniProt P19174) | 3340 nM |  | 
